These results are taken from patent US20250129145A1 (Ablynx, published 2025).

For experiment [1], the target named is T1, human serum albumin (human, UniProt P02768 25-609).
T1 construct: Bought protein; also called HSA
Briefly: SPR, pH 7.4, immobilized HSA density ~6700 RU. How it is done: (§1) The purified multivalent albumin binding constructs were also tested in SPR on different densities of HSA (100 RU until 6700 RU) to detect avidity.
(Surface plasmon resonance follows binding to a sensor surface in real time, without labels.)

Experiment [2] concerns the target T1, human serum albumin. Briefly: SPR, pH 7.4, immobilized HSA density ~500 RU. The protocol:
as §1

The target in experiment [3] is T1, human serum albumin. The experiment is described as follows: SPR, pH 7.4, immobilized HSA density ~100 RU. How it is done: as §1
For experiment [4], the target named is T1, human serum albumin. The experiment is described as follows: SPR, pH 7.4, immobilized HSA density ~3000 RU. How it is done:
as §1

The target of experiment [5] is T1, human serum albumin. The experiment is described as follows: SPR Biacore 8K+, HSA immobilized (C1 chip), pH 7.4, bivalent analyte fit (KD1). The protocol:
(§2) The affinities of the purified multivalent albumin binding constructs for HSA at pH 7.4 was determined on a Biacore 8K+ instrument. HSA (Sigma-Aldrich—Sigma, Cat No. A8763) was immobilized on a Series S Sensor Chip C1. The multivalent albumin binding proteins as described in Table 12 above were injected at 9 different concentrations (between 1.6 and 2500 nM) and allowed to associate for 120 s at 30 μL/min and dissociate for 600 s.

Experiment [6] concerns the target T1, human serum albumin. Briefly: SPR Biacore 8K+, HSA immobilized (C1 chip), pH 7.4, bivalent analyte fit (kd1). The protocol:
as §2

For experiment [7], the target named is T1, human serum albumin. The experiment is described as follows: SPR Biacore 8K+, HSA immobilized (C1 chip), pH 7.4, bivalent analyte fit (ka1). The protocol: as §2
In experiment [8] the target is T1, human serum albumin. Briefly: SPR Biacore 8K+, HSA immobilized (C1 chip), pH 7.4, bivalent analyte fit. The protocol:
as §2

Usually koff stands for the rate constant with which the complex falls apart. Lower therefore signals a long-lived complex. For orientation: kon means the rate constant with which the complex forms. High values mean fast association, low ones slow association.

B1: TPP-66095 (other)
chain: DLGKKLLEAARAGQDDEVRELLKAGADVNAKDYFSHTPLHLAARNGHLKIVEVLLKAGADVNAKDFAGKTPLHLAANEGHLEIVEVLLKAGADVNAQDIFGKTPADIAADAGHEDIAEVLQKAAGGGGSGGGGSGGGGSGGGGSGGGGSGGGGSGGGGSEVQLVESGGGVVQPGGSLRLSCAASGFTFRSFGMSWVRQAPGKGPEWVSSISGSGSDTLYADSVKGRFTISRDNSKNTLYLQMNSLRPEDTALYYCTIGGSLSRSSQGTLVTVSSA
notes: also called DARPIN-35GS-ALB23002-A; DARPIN-35GS-Alb223
As to B1, the koff was determined as 8.3e-05 s⁻¹ with human serum albumin [1], 0.00038 s⁻¹ in the experiment with human serum albumin [2], 0.00021 s⁻¹ with human serum albumin [3] and 0.00016 s⁻¹ with human serum albumin [4].

B2: TPP-66097 (other)
chain: LKEAKEKAIEELKKAGITSDYYFDLINKAKTVEGVNALKDEILKAGGGGSGGGGSGGGGSGGGGSGGGGSGGGGSGGGGSEVQLVESGGGVVQPGGSLRLSCAASGFTFRSFGMSWVRQAPGKGPEWVSSISGSGSDTLYADSVKGRFTISRDNSKNTLYLQMNSLRPEDTALYYCTIGGSLSRSSQGTLVTVSSA
notes: also called ABD-35GS-ALB23002-A; ABD-35GS-Alb223
Turning to B2, the koff with human serum albumin [1] is 6e-05 s⁻¹; with human serum albumin [2], 0.00012 s⁻¹; in the experiment with human serum albumin [3], 7.4e-05 s⁻¹; with human serum albumin [4] it was 8.4e-05 s⁻¹; with human serum albumin [6] it was 1.5e-05 s⁻¹. The Kd with human serum albumin [5] turned out to be 0.082 nM. In the experiment with human serum albumin [7], the kon came to 180000 M⁻¹ s⁻¹. The “ka2 (bivalent analyte fit)” value with human serum albumin [8] was found to be 0.0023 M⁻¹ s⁻¹. In addition, the “kd2 (bivalent analyte fit)” value with human serum albumin [8] is 0.0088 s⁻¹.

B3: TPP-66099 (VHH)
chain: EVQLVESGGGVVQPGGSLRLSCAASGFTFRSFGMSWVRQAPGKGPEWVSSISGSGSDTLYADSVKGRFTISRDNSKNTLYLQMNSLRPEDTALYYCTIGGSLSRSSQGTLVTVSSGGGGSGGGGSGGGGSGGGGSGGGGSGGGGSGGGGSEVQLVESGGGVVQPGGSLRLSCAASGFTFRSFGMSWVRQAPGKGPEWVSSISGSGSDTLYADSVKGRFTISRDNSKNTLYLQMNSLRPEDTALYYCTIGGSLSRSSQGTLVTVSSGGGGSGGGGSGGGGSGGGGSGGGGSGGGGSGGGGSEVQLVESGGGVVQPGGSLRLSCAASGFTFRSFGMSWVRQAPGKGPEWVSSISGSGSDTLYADSVKGRFTISRDNSKNTLYLQMNSLRPEDTALYYCTIGGSLSRSSQGTLVTVSSA
notes: also called ALB23002-35GS-ALB23002-35GS-ALB23002-A
In the case of B3, the koff with human serum albumin [1] came out at 3.6e-05 s⁻¹; with human serum albumin [2] it was 0.00018 s⁻¹; in the experiment with human serum albumin [3] it was 0.00041 s⁻¹; with human serum albumin [4], 7.2e-05 s⁻¹; with human serum albumin [6], 0.0005 s⁻¹. The Kd with human serum albumin [5] was 1.4 nM. The molecule also registered an on-rate (kon) with human serum albumin [7] of 370000 M⁻¹ s⁻¹. For the same molecule, the “ka2 (bivalent analyte fit)” value in the experiment with human serum albumin [8] was determined as 0.0022 M⁻¹ s⁻¹. In the experiment with human serum albumin [8], the “kd2 (bivalent analyte fit)” value is 0.0038 s⁻¹.

B4: TPP-66100 (VHH)
chain: EVQLVESGGGVVQPGGSLRLSCAASGLTFSSYAMGWFRQAPGKERERVVSISRGGGYTYYADSVKGRFTISRDNSKNTVYLQMNSLRPEDTALYYCAAARYWATGSEYEFDYWGQGTLVTVSSGGGGSGGGGSGGGGSGGGGSGGGGSGGGGSGGGGSEVQLVESGGGVVQPGDSLRLSCAASGGTFSTYVMGWFRQAPGKEREFVSAISQNSIHTYYANSVKGRFTISRDNSKNTVYLQLNSLRPEDTALYYCAASRFTSWYTADYEYDYWGQGTLVTVSSGGGGSGGGGSGGGGSGGGGSGGGGSGGGGSGGGGSEVQLVESGGGVVQPGGSLRLSCAASGFTFRSFGMSWVRQAPGKGPEWVSSISGSGSDTLYADSVKGRFTISRDNSKNTLYLQMNSLRPEDTALYYCTIGGSLSRSSQGTLVTVSSA
notes: also called ALBX00002-35GS-T023500029-35GS-ALB23002-A
Turning to B4, the koff with human serum albumin [1] worked out at 0.00032 s⁻¹; with human serum albumin [2], 0.00032 s⁻¹; in the experiment with human serum albumin [3], 0.00027 s⁻¹; in the experiment with human serum albumin [4] it was 0.00036 s⁻¹; in the experiment with human serum albumin [6] it was 0.00034 s⁻¹. For the same molecule, the Kd in the experiment with human serum albumin [5] was found to be 1.7 nM. The molecule further showed a kon in the experiment with human serum albumin [7] of 200000 M⁻¹ s⁻¹. In the experiment with human serum albumin [8], the “ka2 (bivalent analyte fit)” value is 0.0074 M⁻¹ s⁻¹. For the same molecule, the “kd2 (bivalent analyte fit)” value in the experiment with human serum albumin [8] was found to be 0.026 s⁻¹.

B5: TPP-66102 (VHH)
chain: EVQLVESGGGVVQPGGSLRLSCAASGFTFRSFGMSWVRQAPGKGPEWVSSISGSGSDTLYADSVKGRFTISRDNSKNTLYLQMNSLRPEDTALYYCTIGGSLSRSSQGTLVTVSSGGGGSGGGGSGGGGSGGGGSGGGGSGGGGSGGGGSEVQLVESGGGVVQPGGSLRLSCAASGFTFRSFGMSWVRQAPGKGPEWVSSISGSGSDTLYADSVKGRFTISRDNSKNTLYLQMNSLRPEDTALYYCTIGGSLSRSSQGTLVTVSSGGGGSGGGGSGGGGSGGGGSGGGGSGGGGSGGGGSEVQLVESGGGVVQPGGSLRLSCAASGFTFRSFGMSWVRQAPGKGPEWVSSISGSGSDTLYADSVKGRFTISRDNSKNTLYLQMNSLRPEDTALYYCTIGGSLSRSSQGTLVTVSSGGGGSGGGGSGGGGSGGGGSGGGGSGGGGSGGGGSEVQLVESGGGVVQPGGSLRLSCAASGFTFRSFGMSWVRQAPGKGPEWVSSISGSGSDTLYADSVKGRFTISRDNSKNTLYLQMNSLRPEDTALYYCTIGGSLSRSSQGTLVTVSSA
notes: also called ALB23002-35GS-ALB23002-35GS-ALB23002-35GS-ALB23002-A
B5: the off-rate constant (koff) worked out at 1.4e-05 s⁻¹ with human serum albumin [1]; 0.00012 s⁻¹ in the experiment with human serum albumin [2]; 0.00043 s⁻¹ in the experiment with human serum albumin [3]; 3.6e-05 s⁻¹ with human serum albumin [4]; 0.00055 s⁻¹ with human serum albumin [6]. The Kd with human serum albumin [5] was 2 nM. The molecule further registered an on-rate (kon) with human serum albumin [7] of 280000 M⁻¹ s⁻¹. Also, in the experiment with human serum albumin [8], the “ka2 (bivalent analyte fit)” value came out at 0.005 M⁻¹ s⁻¹. The “kd2 (bivalent analyte fit)” value with human serum albumin [8] was found to be 0.0066 s⁻¹.

B6: IRR00164 (VHH)
VHH: EVQLVESGGGVVQPGGSLRLSCAASGFTFRSFGMSWVRQAPGKGPEWVSSISGSGSDTLYADSVKGRFTISRDNSKNTLYLQMNSLRPEDTALYYCTIGGSLSRSSQGTLVTVSS
notes: also called CNB-9GS-CNB-9GS-CNB-9GS-ALB23002-A; CNB-CNB-CNB-Alb223
With B6, the dissociation rate constant (koff) with human serum albumin [1] amounted to 0.0012 s⁻¹; with human serum albumin [2] it was 0.002 s⁻¹; in the experiment with human serum albumin [4], 0.0016 s⁻¹.

B7: TPP-66101 (other)
chain: DLGKKLLEAARAGQDDEVRELLKAGADVNAKDYFSHTPLHLAARNGHLKIVEVLLKAGADVNAKDFAGKTPLHLAANEGHLEIVEVLLKAGADVNAQDIFGKTPADIAADAGHEDIAEVLQKAAGGGGSGGGGSGGGGSGGGGSGGGGSGGGGSGGGGSEVQLVESGGGVVQPGGSLRLSCAASGFTFRSFGMSWVRQAPGKGPEWVSSISGSGSDTLYADSVKGRFTISRDNSKNTLYLQMNSLRPEDTALYYCTIGGSLSRSSQGTLVTVSSGGGGSGGGGSGGGGSGGGGSGGGGSGGGGSGGGGSEVQLVESGGGVVQPGGSLRLSCAASGFTFRSFGMSWVRQAPGKGPEWVSSISGSGSDTLYADSVKGRFTISRDNSKNTLYLQMNSLRPEDTALYYCTIGGSLSRSSQGTLVTVSSA
notes: also called DARPIN-35GS-ALB23002-35GS-ALB23002-A
In the case of B7, the off-rate (koff) came out at 4e-05 s⁻¹ with human serum albumin [1]; 0.00023 s⁻¹ in the experiment with human serum albumin [2]; 0.00076 s⁻¹ with human serum albumin [3]; 0.0001 s⁻¹ in the experiment with human serum albumin [4]; 0.0015 s⁻¹ in the experiment with human serum albumin [6]. Further, the Kd with human serum albumin [5] stood at 5 nM. Further, the association rate constant (kon) with human serum albumin [7] stood at 300000 M⁻¹ s⁻¹. Also, the “ka2 (bivalent analyte fit)” value with human serum albumin [8] was determined as 95 M⁻¹ s⁻¹. The “kd2 (bivalent analyte fit)” value with human serum albumin [8] was 65 s⁻¹.

B8: TPP-66093 (VHH)
chain: EVQLVESGGGVVQPGGSLRLSCAASGLTFSSYAMGWFRQAPGKERERVVSISRGGGYTYYADSVKGRFTISRDNSKNTVYLQMNSLRPEDTALYYCAAARYWATGSEYEFDYWGQGTLVTVSSGGGGSGGGGSGGGGSGGGGSGGGGSGGGGSGGGGSEVQLVESGGGVVQPGGSLRLSCAASGFTFRSFGMSWVRQAPGKGPEWVSSISGSGSDTLYADSVKGRFTISRDNSKNTLYLQMNSLRPEDTALYYCTIGGSLSRSSQGTLVTVSSA
notes: also called ALBX00002-35GS-ALB23002-A; ALBX00002-35GS-Alb223
For the molecule B8, the off-rate constant (koff) is 5.2e-05 s⁻¹ with human serum albumin [1]; 8.6e-05 s⁻¹ with human serum albumin [2]; 0.00011 s⁻¹ with human serum albumin [3]; 6.6e-05 s⁻¹ with human serum albumin [4]; 0.00012 s⁻¹ with human serum albumin [6]. Also, in the experiment with human serum albumin [5], the Kd was 0.66 nM. For the same molecule, the kon with human serum albumin [7] came out at 180000 M⁻¹ s⁻¹. In addition, the “ka2 (bivalent analyte fit)” value with human serum albumin [8] was found to be 0.00012 M⁻¹ s⁻¹. Besides, the “kd2 (bivalent analyte fit)” value with human serum albumin [8] amounted to 0.00084 s⁻¹.

B9: TPP-66094 (VHH)
chain: EVQLVESGGGVVQPGDSLRLSCAASGGTFSTYVMGWFRQAPGKEREFVSAISQNSIHTYYANSVKGRFTISRDNSKNTVYLQLNSLRPEDTALYYCAASRFTSWYTADYEYDYWGQGTLVTVSSGGGGSGGGGSGGGGSGGGGSGGGGSGGGGSGGGGSEVQLVESGGGVVQPGGSLRLSCAASGFTFRSFGMSWVRQAPGKGPEWVSSISGSGSDTLYADSVKGRFTISRDNSKNTLYLQMNSLRPEDTALYYCTIGGSLSRSSQGTLVTVSSA
notes: also called T023500029-35GS-ALB23002-A; T023500029-35GS-Alb223
Regarding B9, the koff with human serum albumin [1] was found to be 5.6e-05 s⁻¹; in the experiment with human serum albumin [2], 9.3e-05 s⁻¹; in the experiment with human serum albumin [3], 0.00012 s⁻¹; with human serum albumin [4] it was 7.6e-05 s⁻¹; with human serum albumin [6], 0.00013 s⁻¹. This molecule also registered a Kd with human serum albumin [5] of 0.49 nM. Further, the kon with human serum albumin [7] was determined as 270000 M⁻¹ s⁻¹. Also, the “ka2 (bivalent analyte fit)” value with human serum albumin [8] is 0.00027 M⁻¹ s⁻¹. Further, the “kd2 (bivalent analyte fit)” value in the experiment with human serum albumin [8] was 0.0022 s⁻¹.
